The values below come from publication PMC7502549 (Journal of molecular biology, 2020).

The data set concerns the molecule itself. Nature of the data set: AUC.

B1: Neurotrimin (NTM) extracellular domain, a.a. 36-311, with C-terminal linker and hexahistidine tag (domain or fragment, human, UniProt Q9P121 36-311, looked up)
chain: ATFPKAMDNVTVRQGESATLRCTIDNRVTRVAWLNRSTILYAGNDKWCLDPRVVLLSNTQTQYSIEIQNVDVYDEGPYTCSVQTDNHPKTSRVHLIVQVSPKIVEISSDISINEGNNISLTCIATGRPEPTVTWRHISPKAVGFVSEDEYLEIQGITREQSGDYECSASNDVAAPVVRRVKVTVNYPPYISEAKGTGVPVGQKGTLQCEASAVPSAEFQWYKDDKRLIEGKKGVKVENRPFLSKLIFFNVSEHDYGNYTCVASNKLGHTNASIMLF
modifications: N-linked glycosylation (extensive)
On to B1, for which the “stoichiometry N” value amounted to 2.

In general, stoichiometry N refers to the number of molecules, sites or subunits per partner or assembly.
